# Reference: the DeepSol protein solubility set
# Assay: soluble on expression in E. coli; label from the status in PepcDB or PDB records
row,Sequence,soluble on expression in E. coli
1,MDMRSHEMIERRREDNGNNNGGVVISNIISTNIDDNCNGNNNNTRVSCNSQTLDHHQSKSPSSFSISAAAKPTVRYRECLKNHAASVGGSVHDGCGEFMPSGEEGTIEALRCAACDCHRNFHRKEMDGVGSSDLISHHRHHHYHHNQYGGGGGRRPPPPNMMLNPLMLPPPPNYQPIHHHKYGMSPPGGGGMVTPMSVAYGGGGGGAESSSEDLNLYGQSSGEGAGAAAGQMAFSMSSSKKRFRTKFTTDQKERMMDFAEKLGWRMNKQDEEELKRFCGEIGVKRQVFKVWMHNNKNNAKKPPTPTTTL,not soluble
2,MTGTVYKLFGNRLLNARNQLDKNLLEMAMQMVYGKDMVTKSGDILIDIQLNKDGSLQSKHYTLDVGEVINSYNIDPLCECFKY,not soluble
3,MSNDIEKSIQQWLEKKLEERGHGAQIELAAYLGIHPSTISRMLNPYKNGKSRSISIGELVKIAEFFKVSPPQISSLMLIKNS,not soluble
4,MAHHHHHHMQQASAAASDEWRTKFGGGGASHDWQASKGNFTNQEFESYWGQKWPNWLKTEKATYPNAANKKWLEQNPPPKQGPAQAKTAKQLAVYAEEAAALARTYTEGITAAHGRELKAIKTALRAALYGTNKKTARAFRR,soluble
5,MFERLREDIQSVFHRDPAARNAFEVLTCYPGMHAIWLHRLGNALWRRDFKWLARLVSNFGRWLTGIEIHPGATIGRRFFIDHGMGIVIGETAEIGDDVTLYQGVTLGGTSWNKGKRHPTLENGVVVGAGAKVLGPFTVGAGAKIGSNAVVTKAVPAGATAVGIPGRIIVKSEDTEVEAKRKAMAEKIGFDAYGVSGDMPDPVARAIGQMLDHLQAVDERLEGMCGALTKMGSDYCAKELPALPEDDFSLEHHHHHH,soluble
6,MQALGLIETRGLLPAIECADVMLKTAQVELVGRDFVGGGLVTISVTGDVGAVKAAVEAGAAAVEKISPLLLVSQHVIPRPHQEIEGMIGPSPAAKQAPPVPQPEKVKALPGFDQTTNKQTIDDFVQEFGLEPCVDALKTLPVLKLRNLAREYKGLAIAGRAISKANKEDLIQQLKEYYNQKHE,not soluble
7,MNILLTSATGYLGRAIAAAIQSKGHRVTALARSAATAQRLEAAGIQPCRGDLTDAVALQQAAAQADAVIHTAATNDAAMGLVDRQAVKTLLAAIAGTQKPFLYTSGLWVMGNTGATVADETFPLNPPALVAWRPAVEALVLSAADQGVRSIVIRPALVYGRGGGLLPMLMQAGQSQGAVPVIGAGDNAWSFIHIDDLAALYVAAIEQAPARTLLIGASGESVSMQQVALTIAKTLGLGDRLQHLTLEEARAIWGDLADALTLDQRVSGDRARQLLHWQPVAPGVFQELTQGSYATKAIAALEHHHHHH,not soluble
8,MANQCFNQAKAVLEFRLDPCHLPQTTTYFSSKTGNQMICSLSERGVFFKTDTFSSLSRLVPSYQFKGIAARTVITLSGEKAVALELLHANEESCVPLLVSRDLNNVLLDWRLWADTYSLPMLMINEDNRLVVVKDRSDLRRFFSTTLHFRKKRFLLRYRNPLGLRLMIANQVAL,not soluble
9,SSVIDKPQVNESAFHRAEPEERESQPETTPQYSPQSVSTTVPERVYQAIDKTPTYPGRTDYEIKPRDRAPSDSSVREARIADSFKRTDWIESKLAPKPNVGKERHAEPAPSKREVHAYHELLKTPDFESQQAEQPTSIESVREVSLPQVTALGKALVVVDEQFVLMSSDSGVALVSLPRSEFYRTKGQLTPSEGALKAQPLLVPLSMKLDTDLVRLAQDYQQDFAQLGIQLKARNDKALMVMGVPAPLRQQNLQNLVPDLLSYAQTWMKGEKASTQMLPALIDWLAVQVTTVKSHYTLSEAIQIIAELEQLRHGQLPLDDKTFVSAVDFSATIAKLKP,not soluble
10,SNAAEHVRLATTTSTYHSGLLDYLLPQFEKDTGYKVDVIAAGTGKALKMGENGDVDLVMTHAPKAEGTFVEKGYGVLPRKLMYNDFVIVGPKADPAKIKDDESVLDVFKEIANKNATFISRGDDSGTHKKEMGFWAQTKIEPNFGGYRSVGQGMGPTLNMASEMQGYTMSDRGTWLAYQNKLDLEILFQGDEKLFNPYQVILVNPERYPTINYQGAKAFSDWLVNPRGQELINGFRL,soluble
11,MLFPTTIAGSLPKPEWLAEPNKLWAPWKSTGAELLRAKRDATILALKLQEDSGIDIVTEGEQARQHFVHGFLEAVEGIDFAHKVEMGIRNDRYKAMVPQVVAPLRLKGRVHGFEGQIARAHSTHKIKFTLPGPMTIIDTIADRHYGDRVKMAFAFAELLNEEAKALQADGIDMIQFDEPAFNVYMSEAADWGVKALERAAQDLTCATAVHICYGYGIKANTDWKETLGAEWRQYEDIFPAIDASSIQQVAVECRNSKVPLELLSLLKGKIVQAGVIDVASDEVETAEDVCATIEAVMQHVPKSNIIATTNCGMAPMRREIAEAKLAALGAGAELARERFKLEHHHHHH,soluble
12,MGSSHHHHHHSSGLVPRGSHMLDIMSDDGDITAVSSGNRDIAQVVTENNKNYLVLYASQTGTAEGFAKAFSKELVAKFNLNVMCADVENYDFESLNDVPVIVSIFISTYGEGDFPDGAVNFEDFICNAEAGALSNLRYNMFGLGNSTYEFFNGAAKKAEKHLSAAGAIRLGKLGEADDGAGTTDEDYMAWKDSILEVLKDELHLDEQEAKFTSQFQYTVLNEITDSMSLGEPSAHYLPSHQLNRNADGIQLGPFDLSQPYIAPIVKSRELFSSNDRNCIHSEFDLSGSNIKYSTGDHLAVWPSNPLEKVEQFLSIFNLDPETIFDLKPLDPTVKVPFPTPTTIGAAIKHYLEITGPVSRQLFSSLIQFAPNADVKEKLTLLSKDKDQFAVEITSKYFNIADALKYLSDGAKWDTVPMQFLVESVPQMTPRYYSISSSSLSEKQTVHVTSIVENFPNPELPDAPPVVGVTTNLLRNIQLAQNNVNIAETNLPVHYDLNGPRKLFANYKLPVHVRRSNFRLPSNPSTPVIMIGPGTGVAPFRGFIRERVAFLESQKKGGNNVSLGKHILFYGSRNTDDFLYQDEWPEYAKKLDGSFEMVVAHSRLPNTKKVYVQDKLKDYEDQVFEMINNGAFIYVCGDAKGMAKGVSTALVGILSRGKSITTDEATELIKMLKTSGRYQEDVW,soluble
13,MASLNCHDKCSTTTQSDINLKDELLSSTSIECRPGNDLLESLHKEQNRWYSETKTFSDSSQHTGRGFEKYWFCYGIKCYYFVMDRKTWSGCKQTCQISSLSLLKIDNEDELKFLKLLVPSDSYWIGLSYDNKKKDWAWINNGPSKLALNTMKYNIRDGGCMLLSKTRLDNDNCDKSFICICGKRLDKFPH,soluble
14,MTAPTLAPIDPPARAQLLADLQGAPDWDVIVIGGGATGLGTAVDAAARGYRTLLVEAADFAKGTSSKATKLVHGGVRYLAQGNISLVREALHERGLLNRNAPHLVWPLGFVVPAYSLLDQPFYGVGLKMYDMLAGKLNLAPSRWLSRGETLRHAATVAERVNGRALRGGILYYDGQFDDARLAIALMRTLYDLGGVALNYARAVGLTRTDGRVDGVTVADALGELRVTLRAKCVVNATGVWVDAVRRMDDPAAQTMVAPSQGVHLTLPRDFLPGEDAILIPKTDDGRVLFVVPWNGHTIVGTTDTPRTDLPLDPQAGQNEIDFILATAARYLSRKPTRADVTSVWAGLRPLVKATGEASTKSLSREHTIVVSKGGLVTVTGGKWTTYRKMAQDVVDTAIQHKLLAAAPCRTSELPLHGAPTDGQPSGAPHGTPDSYYGTDLATLRALPGADRMLVKASALTEAHVRYAARHELARTVEDVLARRNRALFLDAEAALLAAPEVARILAQELGHDEAWSRATLAEFEAVAAHYRLALEHHHHHH,soluble
15,MGSDKIHHHHHHMFTQATFDFLAALEANNERDWFKANQHTYEDKVRTPALALIEAAAPAIVALSPRLTAVAKKVGGSLMRPQRDTRFGHDKRPYKTNVGIQFRHFQGKDVHAPGLYLHIANDGCFVAAGIWHPESKALNAIRSCIDENPATYQKALKALTDSGFAMDGDSLSRPPRGYDKRHPLIDELKRKDFIAVKSLTNHEVLQPDFASRLVAEFEHCQQLMRYLCFALELDY,not soluble
16,MGSDKIHHHHHHMQPETSAQYQHRFSQAIRGGEAADGLPQDRLNVYIRLIRNNIHSFIDRCYTETRQYFDSKEWSRLKEGFVRDARAQTPYFQEIPGEFLQYCQSLPLSDGILALMDFEYTQLLAEVAQIPDIPDIHYSNDSKYTPSPAAFIRQYRYDVTHDLQEAETALLIWRNAEDDVMYQTLDGFDMMLLEIMGSSALSFDTLAQTLVEFMPKADNWKNILLGKWSGWIEQRIIIPSLSAISENMEGNSPSQNHLSA,not soluble
17,GHMSAHVQQDKYETNVSYKKLNQLAPYFKGFDGSFVLYNEREQAYSIYNEPESKQRYSPNSTYKIYLALMAFDQNLLSLNHTEQQWDKHQYPFKEWNQDQNLNSSMKYSVNWYYENLNKHLRQDEVKSYLDLIEYGNEEISGNENYWNESSLKISAIEQVNLLKNMKQHNMHFDNKAIEKVENSMTLKQKDTYKYVGKTGTGIVNHKEANGWFVGYVETKDNTYYFATHLKGEDNANGEKAQQISERILKEMELI,soluble
18,MIAGGFGAGKTTAVGAVSEITPLSTEEYLTEASADVDSLAGLASKRTTTVAFDFGRLSLPDAPMPLELFLFGTPGQDRFVDLWYDLSRGAVGAVVLVDTRRLESSFTPVSFFEDIGLPFVVAVNRFDGAHRYHPEQVRAALELPAAVPVVTCDAREPNHVAGVLLALVDHAVNCAATTNRAGHTPSTTLQDALEHHHHHH,not soluble
19,MKKVYFNHDGGVDDLVSLFLLLQMDNVELTGVSVIPADCYLEPAMSASRKIIDRFGKNTIEVAASNSRGKNPFPKDWRMHAFYVDALPILNESGKVVTHVAAKPAHHHLIETLLQTEEKTTLLFTGPLTDLARALYEAPIIENKIKRLVWMGGTFRTAGNVHEPEHDGTAEWNSFWDPEAVARVWEANIEIDLITLESTNQVPLTIDIREQWAKERKYIGIDFLGQCYAIVPPLVHFAKNSTYYLWDVLTAAFVGKADLAKVQTINSIVHTYGPSQGRTVETDDGRPVHVVYDVNHDRFFDYITRLAKKVST,soluble
20,MKKICMKNGMKIIYEYRESDITSFCVAFNAGAEREGKKERGLAHVVEHCIFKGTKKRSEAQINSEFDEIFGFNNAMTNFPYVIYYGTTLSKDFEKGFELYSDIIVNPTFSEEGFEEEKSIICEELTEWKDDKQQFCEDELLKNSFSNIRLKECIIGNEKNIKDFSIDELRKFYKKYYTSDNCVIGIVTSLKEEEVTDIINNYMTLSKREKPSLFDYEYEKNTSGIFTSKMDVKGAVIQYLFPIYKLKDDEIKALRAFNVIFGEGTSSMLYDKIRTKYGLAYDIYSKINNDGGIKLFYIGLGTASENFDKSIEFVNDTICEAKNLKGQFSSDKLLKIEKTMSLKRSLKLERSIQLAKELATYELMYGKAENVYDEVKDINLLNEDYIIEVVRSVLVTPSIQVVKPNK,not soluble
21,MNITATSLDSEDELSIKYMDAVDNINILKRYGCDIQHEVDVHTMSFDNSLSLQRYDRIVFNFPHAGSRFFGRELSSRAIESHKELVRGFLENAKEMLEEDGEIHITHKTTYPFSDWGIKKLGKGEGLKLLKKSKFELSHYPGYITKRGSGGRRSDDYFPVDVDPCDLKGFEVLEIYHPSMSDGFVNSVMVARKLTDRLIKYEWCTGTRSLNSLKKTRQTEPDQFNKREINRSGPGQVAEEEEEVVAVMMMMTSLGGGAGGGGGGGGSGGGRFVTYPPPLSVPPSAPQSPNFSGGLRSQPSFLVEQEKYLSELLAERHKLTPFLPVLPHVCRLMNQEILRVTTLLENALSQSRFDHPSPLASGGIFQNSRADMNGWASQFPSERSVSSSPAPNWLNSPGSSSGLIVKRTIRVDIPVDKYPNYNFVGRLLGPRGNSLKRVEASTDCRVLIRGRGSIKDPIKEDMMRGKPGYEHLNEPLHILVEAELPIEIVDARLMQAREILDDLLTPVEETHDFYKKQQLRELALLNGSLREEGSPMSGSISPYNSLGMKRAKTRG,soluble
